# Data reported in IntAct's records for PubMed 26840340.
# B1: Islet amyloid polypeptide (Homo sapiens), P10997 (parent)
# chain: MGILKLQVFLIVLSVALNHLKATPIESHQVEKRKCNTATCATQRLANFLVHSSNNFGAILSSTNVGSNTYGKRNAVEVLKREPLNYLPL
# Variants of: B1
# Conditions: with bace1_human BACE1, P56817
# Sequence of bace1_human BACE1, P56817 (P56817 whole entry): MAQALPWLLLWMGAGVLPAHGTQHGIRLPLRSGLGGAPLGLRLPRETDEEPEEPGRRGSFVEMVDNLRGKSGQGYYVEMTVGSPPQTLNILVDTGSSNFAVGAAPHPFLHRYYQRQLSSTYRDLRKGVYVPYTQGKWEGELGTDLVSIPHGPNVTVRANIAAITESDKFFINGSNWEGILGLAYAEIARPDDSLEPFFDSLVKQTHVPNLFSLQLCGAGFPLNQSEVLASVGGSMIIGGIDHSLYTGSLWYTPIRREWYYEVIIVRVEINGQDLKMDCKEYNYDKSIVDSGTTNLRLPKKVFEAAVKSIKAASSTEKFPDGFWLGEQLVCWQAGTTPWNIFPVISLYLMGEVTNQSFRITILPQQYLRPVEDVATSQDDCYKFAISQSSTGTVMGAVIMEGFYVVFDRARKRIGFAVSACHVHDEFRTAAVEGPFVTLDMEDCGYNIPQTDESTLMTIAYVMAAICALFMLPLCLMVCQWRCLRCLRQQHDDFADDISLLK
row,effect of a mutation on the interaction,Variant
1,with no effect,MGILKLQVFLIVLSVALNHLKATPIESHQVEKRKCNTATCATQRLANFLVHSSNNKGAILSSTNVGSNTYGKRNAVEVLKREPLNYLPL [F56K]
